Experimental findings from paper PMC3059353 are described below.

Substrate in the series: Nc1ncnc2nc[nH]c12
Description: steady-state kinetics of purified enzyme, GDH-coupled ammonia assay. The class given is biochemical, Agrobacterium fabrum. To be noted: binuclear Mn2+ active site at binuclear metal center (adenine pose only modeled).

B1: adenine deaminase Atu4426 (Agrobacterium fabrum str. C58) (protein)
chain: MTAQIRLAEPADLNDDTLRARAVAAARGDQRFDVLITGGTLVDVVTGELRPADIGIVGALIASVHEPASRRDAAQVIDAGGAYVSPGLIDTHMHIESSMITPAAYAAAVVARGVTTIVWDPHEFGNVHGVDGVRWAAKAIENLPLRAILLAPSCVPSAPGLERGGADFDAAILADLLSWPEIGGIAEIMNMRGVIERDPRMSGIVQAGLAAEKLVCGHARGLKNADLNAFMAAGVSSDHELVSGEDLMAKLRAGLTIELRGSHDHLLPEFVAALNTLGHLPQTVTLCTDDVFPDDLLQGGGLDDVVRRLVRYGLKPEWALRAATLNAAQRLGRSDLGLIAAGRRADIVVFEDLNGFSARHVLASGRAVAEGGRMLVDIPTCDTTVLKGSMKLPLRMANDFLVKSQGAKVRLATIDRPRFTQWGETEADVKDGFVVPPEGATMISVTHRHGMAEPTTKTGFLTGWGRWNGAFATTVSHDSHNLTVFGGNAGDMALAANAVIGTGGGMAVASEGKVTAILPLPLSGLVSDAPLEEVARAFEDLREAVGKVVEWQPPYLVFKACFGATLACNIGPHQTDMGIADVLTGKVMESPVIEVLG
For orientation: Km means the concentration of substrate that gives half-maximal velocity. With B1, the Km came out at 320 ± 40 µM.
